These results are taken from US20110059889A1 (SYNTONIX PHARMACEUTICALS, published 2011).

The target of assay [1] is T1, soluble human FcRn (shFcRn) (human, UniProt P55899 24-297; P61769 21-119).
T1 construct: Biotinylated for the ELISA, amine-coupled to a CM5 chip for SPR; also called biotinylated shFcRn
Briefly: IgG competition ELISA. In general terms: An ELISA detects its analyte on a solid surface through an enzyme-linked reagent.
Experimental: (§1) The wells were coated with 100 μl/well of 1 μg/ml biotinylated-shFcRn in Buffer A. The plate was sealed and incubated at 37° C. for 2 hours. Afterwards, the plate was washed with 200 μl/well of Buffer B (Buffer B: 100 mM MES pH 6, 150 mM NaCl, 0.5% BSA IgG-free (Jackson ImmunoResearch, West Grove, Pa.), 0.05% Tween-20). […] To allow for mixing, the plate was rocked for 2 minutes, sealed and incubated at 37° C. for 2 hours. […] The plate was covered, incubated for 30 minutes at room temperature and washed 4 times with 200 μl/well of ice-cold buffer B. SureBlue TMB substrate solution (100 μl/well, KPL, Gaithersburg, Md.) was added and the plate was allowed to incubate at room temperature until color developed, which took 5 to 10 minutes. Once color developed, 100 μl/well of TMB stop solution (KPL, Gaithersburg, Md.) was added and the absorbance was measured at 450 nm. The data was plotted as absorbance vs. peptide concentration to derive the inhibitory concentration 50% (IC₅₀) values.

Assay [2] concerns the target T1, soluble human FcRn (shFcRn). Briefly: SPR pH 6.
Experimental: The following steps were performed to cross-link soluble human or cynomolgus FcRn to the dextran surface of a CM5 sensor chip (Biacore AB, Uppsala, Sweden) by an amine coupling reaction involving 1-ethyl-(3-dimethylaminopropyl)-carbodiimide hydrochloride (EDC) (Biacore AB, Uppsala, Sweden) and N-hydroxysuccinimide (NHS) (Biacore AB, Uppsala, Sweden) as recommended by Biacore (BIAapplications Handbook, version AB, section 4.2, Biacore AB, Uppsala, Sweden). […] Residual sites on the FcRn flow cell were blocked with 1 M ethanolamine hydrochloride pH 8.5 (Biacore AB, Uppsala, Sweden). A control flow cell was blocked with ethanolamine for reference subtraction. For analysis of the monomeric peptides, FcRn was coated to a final density of 4000-5000 response units (RU). For analysis of the peptide dimers, FcRn was coated to a density of 2000-2500 RU. All SPR measurements were performed using a BIACORE 3000 Instrument (Biacore AB Uppsala, Sweden). For measurements done at either pH 6 or pH 7.4, experiments were performed in 50 mM phosphate, 100 mM sodium chloride, 0.01% surfactant P20 (Biacore AB, Uppsala, Sweden).
Ten, 2-fold dilutions of the peptide were injected over the FcRn-CM5 chip at a rate of 20 μl/min for 2 min. The peptide was dissociated from the chip for 2.5 minutes with buffer. Any remaining peptide was removed from the chip with a 30 second injection of HBS-P buffer (Biacore AB, Uppsala, Sweden) at a rate of 30 μl/min. Sensorgrams were generated and analyzed using BiaEval software version 3.1 (Biacore AB, Uppsala, Sweden). The equilibrium RU observed for each injection was plotted against concentration. The equilibrium KD values were derived by analysis of the plots using the steady state affinity model included in the BiaEval software.
Assay [3] shares this target. Briefly: IgG competition ELISA. This is another data set of the same source.
Experimental: as §1
Assay [4] has the same target. Briefly: IgG competition ELISA. This is another data set of the same source.
Experimental: as §1

Read-outs that look alike come from different tables or passages of the source. Bridge positions count the residues as written; N and C are the ends. Square brackets hold non-standard residues; d marks the D form. Ends that are not written are not given here. NMeL = CN[C@@H](CC(C)C)C(=O)O; Pen = CC(C)(S)[C@H](N)C(=O)O

T1 sequence (P55899 24-297 limits assumed, chain 1 of 2): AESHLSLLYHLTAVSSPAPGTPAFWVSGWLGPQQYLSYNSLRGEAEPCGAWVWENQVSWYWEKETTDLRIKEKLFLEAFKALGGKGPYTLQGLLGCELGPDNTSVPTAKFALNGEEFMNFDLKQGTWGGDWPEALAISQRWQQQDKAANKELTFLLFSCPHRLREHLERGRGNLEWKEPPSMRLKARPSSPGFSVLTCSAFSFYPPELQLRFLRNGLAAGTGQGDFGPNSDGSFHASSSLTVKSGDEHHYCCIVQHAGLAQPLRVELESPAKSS
T1 sequence (P61769 21-119 limits assumed, chain 2 of 2): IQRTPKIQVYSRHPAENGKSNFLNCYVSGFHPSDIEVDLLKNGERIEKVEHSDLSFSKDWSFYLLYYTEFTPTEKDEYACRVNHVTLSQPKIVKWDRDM

A word on the IC50: it is the midpoint of a concentration-inhibition curve. The Kd is the concentration at which binding is half-saturated. A higher Kd goes with weaker binding. QRFCTGHFXGLYPCNGP (Pen 4; Aib 9; disulfide 4-14; C-terminal amide) [Peptide No. 54]: the IC50 in assay [1] is 17 µM. In addition, binding in assay [2] was characterised by a dissociation constant (Kd) of 5.2 µM.

B1: Peptide No. 45 (peptide)
peptide: QRF[Pen]TGHFG[dY]LYPCNGP-NH2
modifications: disulfide 4-14; N-terminus assumed
SMILES: CC(C)C[C@@H]1NC(=O)[C@@H](Cc2ccc(O)cc2)NC(=O)CNC(=O)[C@H](Cc2ccccc2)NC(=O)[C@H](Cc2c[nH]cn2)NC(=O)CNC(=O)[C@H]([C@@H](C)O)NC(=O)[C@@H](NC(=O)[C@H](Cc2ccccc2)NC(=O)[C@H](CCCNC(=N)N)NC(=O)[C@@H](N)CCC(N)=O)C(C)(C)SSC[C@@H](C(=O)N[C@@H](CC(N)=O)C(=O)NCC(=O)N2CCC[C@H]2C(N)=O)NC(=O)[C@@H]2CCCN2C(=O)[C@H](Cc2ccc(O)cc2)NC1=O
Take B1: in assay [2], the Kd is 1.5 µM.

B2: Peptide No. 155 (peptide)
peptide: QRF[Pen]TGHF[dF]GPYPCNGP-NH2
modifications: disulfide 4-14; N-terminus assumed
SMILES: C[C@@H](O)[C@@H]1NC(=O)[C@@H](NC(=O)[C@H](Cc2ccccc2)NC(=O)[C@H](CCCNC(=N)N)NC(=O)[C@@H](N)CCC(N)=O)C(C)(C)SSC[C@@H](C(=O)N[C@@H](CC(N)=O)C(=O)NCC(=O)N2CCC[C@H]2C(N)=O)NC(=O)[C@@H]2CCCN2C(=O)[C@H](Cc2ccc(O)cc2)NC(=O)[C@@H]2CCCN2C(=O)CNC(=O)[C@@H](Cc2ccccc2)NC(=O)[C@H](Cc2ccccc2)NC(=O)[C@H](Cc2c[nH]cn2)NC(=O)CNC1=O
B2 gave an IC50 in assay [1] of 39 µM. In assay [2], this molecule returned a Kd of 18.3 µM.

B3: Peptide No. 95 (peptide)
peptide: QRF[Pen]TGHWGGLYPCNGP-NH2
modifications: disulfide 4-14; N-terminus assumed
SMILES: CC(C)C[C@@H]1NC(=O)CNC(=O)CNC(=O)[C@H](Cc2c[nH]c3ccccc23)NC(=O)[C@H](Cc2c[nH]cn2)NC(=O)CNC(=O)[C@H]([C@@H](C)O)NC(=O)[C@@H](NC(=O)[C@H](Cc2ccccc2)NC(=O)[C@H](CCCNC(=N)N)NC(=O)[C@@H](N)CCC(N)=O)C(C)(C)SSC[C@@H](C(=O)N[C@@H](CC(N)=O)C(=O)NCC(=O)N2CCC[C@H]2C(N)=O)NC(=O)[C@@H]2CCCN2C(=O)[C@H](Cc2ccc(O)cc2)NC1=O
In the case of B3, the IC50 in assay [3] was 26 µM.

B4: Peptide No. 153 (peptide)
peptide: QRF[Pen]TGHF[dF]G[NMeL]YPCNGP-NH2
modifications: disulfide 4-14; N-terminus assumed
SMILES: CC(C)C[C@H]1C(=O)N[C@@H](Cc2ccc(O)cc2)C(=O)N2CCC[C@H]2C(=O)N[C@H](C(=O)N[C@@H](CC(N)=O)C(=O)NCC(=O)N2CCC[C@H]2C(N)=O)CSSC(C)(C)[C@H](NC(=O)[C@H](Cc2ccccc2)NC(=O)[C@H](CCCNC(=N)N)NC(=O)[C@@H](N)CCC(N)=O)C(=O)N[C@@H]([C@@H](C)O)C(=O)NCC(=O)N[C@@H](Cc2c[nH]cn2)C(=O)N[C@@H](Cc2ccccc2)C(=O)N[C@H](Cc2ccccc2)C(=O)NCC(=O)N1C
B4 returned an IC50 in assay [1] of 1.3 µM. In assay [2], this molecule came in with a Kd of 0.24 µM.

B5: Peptide No. 52 (peptide)
peptide: QRF[Pen]TGHF[dF]GLYPCNGP-NH2
modifications: disulfide 4-14; N-terminus assumed
SMILES: CC(C)C[C@@H]1NC(=O)CNC(=O)[C@@H](Cc2ccccc2)NC(=O)[C@H](Cc2ccccc2)NC(=O)[C@H](Cc2c[nH]cn2)NC(=O)CNC(=O)[C@H]([C@@H](C)O)NC(=O)[C@@H](NC(=O)[C@H](Cc2ccccc2)NC(=O)[C@H](CCCNC(=N)N)NC(=O)[C@@H](N)CCC(N)=O)C(C)(C)SSC[C@@H](C(=O)N[C@@H](CC(N)=O)C(=O)NCC(=O)N2CCC[C@H]2C(N)=O)NC(=O)[C@@H]2CCCN2C(=O)[C@H](Cc2ccc(O)cc2)NC1=O
In the case of B5, the IC50 in assay [1] turned out to be 2.8 µM. The molecule also had a Kd in assay [2] of 0.51 µM.

B6: Peptide No. 148 (peptide)
peptide: QRF[Pen]TGHF[dA][dA]LYPCNGP-NH2
modifications: disulfide 4-14; N-terminus assumed
SMILES: CC(C)C[C@@H]1NC(=O)[C@@H](C)NC(=O)[C@@H](C)NC(=O)[C@H](Cc2ccccc2)NC(=O)[C@H](Cc2c[nH]cn2)NC(=O)CNC(=O)[C@H]([C@@H](C)O)NC(=O)[C@@H](NC(=O)[C@H](Cc2ccccc2)NC(=O)[C@H](CCCNC(=N)N)NC(=O)[C@@H](N)CCC(N)=O)C(C)(C)SSC[C@@H](C(=O)N[C@@H](CC(N)=O)C(=O)NCC(=O)N2CCC[C@H]2C(N)=O)NC(=O)[C@@H]2CCCN2C(=O)[C@H](Cc2ccc(O)cc2)NC1=O
On to B6, for which, in assay [2], the Kd stood at 0.45 µM.

B7: Peptide No. 50 (peptide)
peptide: QRF[Pen]TGHF[dH]GLYPCNGP-NH2
modifications: disulfide 4-14; N-terminus assumed
SMILES: CC(C)C[C@@H]1NC(=O)CNC(=O)[C@@H](Cc2c[nH]cn2)NC(=O)[C@H](Cc2ccccc2)NC(=O)[C@H](Cc2c[nH]cn2)NC(=O)CNC(=O)[C@H]([C@@H](C)O)NC(=O)[C@@H](NC(=O)[C@H](Cc2ccccc2)NC(=O)[C@H](CCCNC(=N)N)NC(=O)[C@@H](N)CCC(N)=O)C(C)(C)SSC[C@@H](C(=O)N[C@@H](CC(N)=O)C(=O)NCC(=O)N2CCC[C@H]2C(N)=O)NC(=O)[C@@H]2CCCN2C(=O)[C@H](Cc2ccc(O)cc2)NC1=O
For the molecule B7, in assay [1], the IC50 was determined as 3.6 µM.

B8: Peptide No. 203 (peptide)
peptide: QRF[Pen]TGHF[dF]PLYPCNGP-NH2
modifications: disulfide 4-14; N-terminus assumed
SMILES: CC(C)C[C@@H]1NC(=O)[C@@H]2CCCN2C(=O)[C@@H](Cc2ccccc2)NC(=O)[C@H](Cc2ccccc2)NC(=O)[C@H](Cc2c[nH]cn2)NC(=O)CNC(=O)[C@H]([C@@H](C)O)NC(=O)[C@@H](NC(=O)[C@H](Cc2ccccc2)NC(=O)[C@H](CCCNC(=N)N)NC(=O)[C@@H](N)CCC(N)=O)C(C)(C)SSC[C@@H](C(=O)N[C@@H](CC(N)=O)C(=O)NCC(=O)N2CCC[C@H]2C(N)=O)NC(=O)[C@@H]2CCCN2C(=O)[C@H](Cc2ccc(O)cc2)NC1=O
For the molecule B8, binding in assay [2] was put at a Kd of 3.8 µM.

B9: Peptide No. 49 (peptide)
peptide: QRF[Pen]TGHF[dR]GLYPCNGP-NH2
modifications: disulfide 4-14; N-terminus assumed
SMILES: CC(C)C[C@@H]1NC(=O)CNC(=O)[C@@H](CCCNC(=N)N)NC(=O)[C@H](Cc2ccccc2)NC(=O)[C@H](Cc2c[nH]cn2)NC(=O)CNC(=O)[C@H]([C@@H](C)O)NC(=O)[C@@H](NC(=O)[C@H](Cc2ccccc2)NC(=O)[C@H](CCCNC(=N)N)NC(=O)[C@@H](N)CCC(N)=O)C(C)(C)SSC[C@@H](C(=O)N[C@@H](CC(N)=O)C(=O)NCC(=O)N2CCC[C@H]2C(N)=O)NC(=O)[C@@H]2CCCN2C(=O)[C@H](Cc2ccc(O)cc2)NC1=O
B9: the IC50 in assay [1] worked out at 4.1 µM.

B10: Peptide No. 48 (peptide)
peptide: QRF[Pen]TGHF[dP]GLYPCNGP-NH2
modifications: disulfide 4-14; N-terminus assumed
SMILES: CC(C)C[C@@H]1NC(=O)CNC(=O)[C@H]2CCCN2C(=O)[C@H](Cc2ccccc2)NC(=O)[C@H](Cc2c[nH]cn2)NC(=O)CNC(=O)[C@H]([C@@H](C)O)NC(=O)[C@@H](NC(=O)[C@H](Cc2ccccc2)NC(=O)[C@H](CCCNC(=N)N)NC(=O)[C@@H](N)CCC(N)=O)C(C)(C)SSC[C@@H](C(=O)N[C@@H](CC(N)=O)C(=O)NCC(=O)N2CCC[C@H]2C(N)=O)NC(=O)[C@@H]2CCCN2C(=O)[C@H](Cc2ccc(O)cc2)NC1=O
Molecule B10 gave an IC50 in assay [1] of 5 µM.

B11: Peptide No. 150 (peptide)
peptide: QRF[Pen]TGHF[dF][dP]LYPCNGP-NH2
modifications: disulfide 4-14; N-terminus assumed
SMILES: CC(C)C[C@@H]1NC(=O)[C@H]2CCCN2C(=O)[C@@H](Cc2ccccc2)NC(=O)[C@H](Cc2ccccc2)NC(=O)[C@H](Cc2c[nH]cn2)NC(=O)CNC(=O)[C@H]([C@@H](C)O)NC(=O)[C@@H](NC(=O)[C@H](Cc2ccccc2)NC(=O)[C@H](CCCNC(=N)N)NC(=O)[C@@H](N)CCC(N)=O)C(C)(C)SSC[C@@H](C(=O)N[C@@H](CC(N)=O)C(=O)NCC(=O)N2CCC[C@H]2C(N)=O)NC(=O)[C@@H]2CCCN2C(=O)[C@H](Cc2ccc(O)cc2)NC1=O
On to B11, for which the IC50 in assay [1] was found to be 5.9 µM. In assay [2], the Kd is 0.72 µM.

B12: Peptide No. 152 (peptide)
peptide: QRF[Pen]TGHF[dP][dP]LYPCNGP-NH2
modifications: disulfide 4-14; N-terminus assumed
SMILES: CC(C)C[C@@H]1NC(=O)[C@H]2CCCN2C(=O)[C@H]2CCCN2C(=O)[C@H](Cc2ccccc2)NC(=O)[C@H](Cc2c[nH]cn2)NC(=O)CNC(=O)[C@H]([C@@H](C)O)NC(=O)[C@@H](NC(=O)[C@H](Cc2ccccc2)NC(=O)[C@H](CCCNC(=N)N)NC(=O)[C@@H](N)CCC(N)=O)C(C)(C)SSC[C@@H](C(=O)N[C@@H](CC(N)=O)C(=O)NCC(=O)N2CCC[C@H]2C(N)=O)NC(=O)[C@@H]2CCCN2C(=O)[C@H](Cc2ccc(O)cc2)NC1=O
With B12, the IC50 in assay [1] came out at 21 µM. In assay [4], QRFCTGXFGGLYPCNGP (Pen 4; Thz 7; disulfide 4-14; C-terminal amide) [Peptide No. 91] gave an IC50 of 44 µM.

B13: Peptide No. 269 (peptide)
peptide: RFCTGXFGGLYPC
modifications: Pen 3; Thz(Me) 6 (N-methyl-thiazolium); Sar 9; NMeL 10; disulfide 3-13; C-terminal CONH2
In assay [4], B13 had an IC50 of 2.4 µM.

B14: Peptide No. 271 (peptide)
peptide: RFCTGXFGGLYPC
modifications: Pen 3; triazolylAla 6 (1,2,3-triazole side chain); Sar 9; NMeL 10; disulfide 3-13; C-terminal amide
B14 registered an IC50 in assay [4] of 5.7 µM. For RFCTGXFGGLYPC (Pen 3; PropargylGly 6; Sar 9; NMeLeu 10; disulfide 3-13; C-terminal amide) [Peptide No. 261], in assay [4], the IC50 is 160 µM.
